# Assay results from paper PMC9482650, “Quantitative fragmentomics allow affinity mapping of interactomes” (Nature Communications, 2022).
# Changes are numbered by the printed parent chain.
# T1: GRIP1_5, Q9Y3R0
# T1 sequence (Q9Y3R0 568-668, limits assumed, looked up): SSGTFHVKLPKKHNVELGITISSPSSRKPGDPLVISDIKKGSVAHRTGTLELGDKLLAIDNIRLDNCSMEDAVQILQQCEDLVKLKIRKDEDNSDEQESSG
# T2: CARD11, Q9BXL7
# T2 sequence (Q9BXL7 662-765, limits assumed, looked up): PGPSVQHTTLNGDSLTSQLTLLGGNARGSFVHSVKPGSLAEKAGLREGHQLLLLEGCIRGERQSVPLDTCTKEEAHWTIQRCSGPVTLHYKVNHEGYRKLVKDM
# T3: LIN7B, Q9HAP6
# T3 sequence (Q9HAP6 88-185, limits assumed, looked up): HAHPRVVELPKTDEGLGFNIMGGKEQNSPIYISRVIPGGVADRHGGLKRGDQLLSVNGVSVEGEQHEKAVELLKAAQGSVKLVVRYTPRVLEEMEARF
# T4: APBA3_1, O96018
# T4 sequence (O96018 389-490, limits assumed, looked up): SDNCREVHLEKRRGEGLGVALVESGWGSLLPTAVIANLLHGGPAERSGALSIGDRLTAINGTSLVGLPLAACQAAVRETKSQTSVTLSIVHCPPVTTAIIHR
# T5: MPP7, Q5T2T1
# T5 sequence (Q5T2T1 134-230, limits assumed, looked up): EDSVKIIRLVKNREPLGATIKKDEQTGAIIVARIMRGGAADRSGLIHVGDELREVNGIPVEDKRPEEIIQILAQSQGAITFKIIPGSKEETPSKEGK
# T6: MPDZ_5, O75970
# T6 sequence (O75970 695-796, limits assumed, looked up): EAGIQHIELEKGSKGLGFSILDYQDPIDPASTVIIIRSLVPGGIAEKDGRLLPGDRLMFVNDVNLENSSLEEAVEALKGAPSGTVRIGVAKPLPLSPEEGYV
# T7: MPDZ_10, O75970
# T7 sequence (O75970 1624-1722, limits assumed, looked up): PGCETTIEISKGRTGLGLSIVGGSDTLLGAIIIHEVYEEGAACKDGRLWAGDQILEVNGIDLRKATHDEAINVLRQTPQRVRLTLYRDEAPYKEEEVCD
# T8: GRIP1_2, Q9Y3R0
# T8 sequence (Q9Y3R0 145-248, limits assumed, looked up): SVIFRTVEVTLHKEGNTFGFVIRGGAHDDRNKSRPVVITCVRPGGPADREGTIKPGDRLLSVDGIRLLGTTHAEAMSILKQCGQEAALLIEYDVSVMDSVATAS
# T9: LIN7A, O14910
# T9 sequence (O14910 103-200, limits assumed, looked up): T3 sequence (Q9HAP6 88-185, limits assumed, looked up) with A2S, I20V, V35I, D42E, Q65H, Q77K, G78D, R89K
# T10: PARD3B_1, Q8TEW8
# T10 sequence (Q8TEW8 196-299, limits assumed, looked up): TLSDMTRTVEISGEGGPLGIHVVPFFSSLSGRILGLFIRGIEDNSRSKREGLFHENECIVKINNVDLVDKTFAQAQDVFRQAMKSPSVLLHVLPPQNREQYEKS
# T11: GRIP1_4, Q9Y3R0
# T11 sequence (Q9Y3R0 467-571, limits assumed, looked up): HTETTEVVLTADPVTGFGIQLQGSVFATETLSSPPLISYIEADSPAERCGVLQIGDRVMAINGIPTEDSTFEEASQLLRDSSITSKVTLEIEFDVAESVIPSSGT
# B1: FAT3, Q8TDW7 (peptide)
# chain: FVETQHQTQV
# B2: NET1, Q7Z628 (peptide)
# chain: SGGKRKETLV
# B3: HPV33-E6, P06427 (peptide)
# chain: SRSRRRETAL
# Molecular target: GRIP2_7, Q9C0E4
# Test: holdup assay
# Set-up: key: below the threshold = too weak to quantify, mostly under pKd 3.1 to 4
# Details: plain residues with an end cap or a label only (N-terminal biotin on a linker: ttds)
# Chain of GRIP2_7, Q9C0E4 (Q9C0E4 934-1023): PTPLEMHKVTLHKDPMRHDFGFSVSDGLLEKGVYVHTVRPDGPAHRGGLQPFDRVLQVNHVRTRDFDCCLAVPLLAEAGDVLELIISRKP
row,Binder,pKd
1,B1,3.82
2,B2,below the threshold
3,B3,3.42

# Molecular target: LNX1_2, Q8TBB1
# Test: holdup assay
# Set-up: key: below the threshold = too weak to quantify, mostly under pKd 3.1 to 4
# Details: plain residues with an end cap or a label only (N-terminal biotin on a linker: ttds)
# Chain of LNX1_2, Q8TBB1 (Q8TBB1 371-470): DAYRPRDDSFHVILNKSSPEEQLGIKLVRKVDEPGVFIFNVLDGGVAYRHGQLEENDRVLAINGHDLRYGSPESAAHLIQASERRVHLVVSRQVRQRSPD
row,Binder,pKd
1,B1,below the threshold
2,B2,3.62
3,B3,below the threshold

# Molecular target: DLG1_2, Q12959
# Test: holdup assay
# Set-up: key: below the threshold = too weak to quantify, mostly under pKd 3.1 to 4
# Details: plain residues with an end cap or a label only (N-terminal biotin on a linker: ttds)
# Chain of DLG1_2, Q12959 (Q12959 314-412): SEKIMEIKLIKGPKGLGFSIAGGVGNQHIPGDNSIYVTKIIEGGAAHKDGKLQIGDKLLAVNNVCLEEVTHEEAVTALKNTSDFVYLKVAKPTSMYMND
row,Binder,pKd
1,B1,4.95
2,B2,5.78
3,B3,5.14

# Molecular target: Inadl_8, Q8NI35
# Test: holdup assay
# Set-up: key: below the threshold = too weak to quantify, mostly under pKd 3.1 to 4
# Details: plain residues with an end cap or a label only (N-terminal biotin on a linker: ttds)
# Chain of Inadl_8, Q8NI35 (Q8NI35 1425-1530): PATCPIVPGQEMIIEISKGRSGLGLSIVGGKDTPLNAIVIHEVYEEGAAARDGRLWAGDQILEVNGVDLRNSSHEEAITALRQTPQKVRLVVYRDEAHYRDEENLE
row,Binder,pKd
1,B1,below the threshold
2,B2,3.63
3,B3,below the threshold

# Molecular target: T1, GRIP1_5, Q9Y3R0
# Test: holdup assay
# Set-up: key: below the threshold = too weak to quantify, mostly under pKd 3.1 to 4
# Details: plain residues with an end cap or a label only (N-terminal biotin on a linker: ttds)
row,Binder,pKd
1,B1,below the threshold
2,B2,below the threshold
3,B3,below the threshold

# Molecular target: T2, CARD11, Q9BXL7
# Test: holdup assay
# Set-up: key: below the threshold = too weak to quantify, mostly under pKd 3.1 to 4
# Details: plain residues with an end cap or a label only (N-terminal biotin on a linker: ttds)
row,Binder,pKd
1,B1,below the threshold
2,B2,below the threshold
3,B3,below the threshold

# Molecular target: T3, LIN7B, Q9HAP6
# Test: holdup assay
# Set-up: key: below the threshold = too weak to quantify, mostly under pKd 3.1 to 4
# Details: plain residues with an end cap or a label only (N-terminal biotin on a linker: ttds)
row,Binder,pKd
1,B1,below the threshold
2,B2,3.81
3,B3,3.72

# Molecular target: T4, APBA3_1, O96018
# Test: holdup assay
# Set-up: key: below the threshold = too weak to quantify, mostly under pKd 3.1 to 4
# Details: plain residues with an end cap or a label only (N-terminal biotin on a linker: ttds)
row,Binder,pKd
1,B1,below the threshold
2,B2,below the threshold
3,B3,below the threshold

# Molecular target: MAGI2_6, Q86UL8
# Test: holdup assay
# Set-up: key: below the threshold = too weak to quantify, mostly under pKd 3.1 to 4
# Details: plain residues with an end cap or a label only (N-terminal biotin on a linker: ttds)
# Chain of MAGI2_6, Q86UL8 (Q86UL8 1141-1229): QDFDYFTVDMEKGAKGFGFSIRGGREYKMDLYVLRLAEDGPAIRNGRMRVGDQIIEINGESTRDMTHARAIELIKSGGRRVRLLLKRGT
row,Binder,pKd
1,B1,3.77
2,B2,3.54
3,B3,below the threshold

# Molecular target: NHERF4_2, Q86UT5
# Test: holdup assay
# Set-up: key: below the threshold = too weak to quantify, mostly under pKd 3.1 to 4
# Details: plain residues with an end cap or a label only (N-terminal biotin on a linker: ttds)
# Chain of NHERF4_2, Q86UT5 (Q86UT5 220-308): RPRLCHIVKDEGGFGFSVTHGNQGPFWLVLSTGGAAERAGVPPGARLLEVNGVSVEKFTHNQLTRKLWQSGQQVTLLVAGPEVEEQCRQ
row,Binder,pKd
1,B1,below the threshold
2,B2,below the threshold
3,B3,below the threshold

# Molecular target: T5, MPP7, Q5T2T1
# Test: holdup assay
# Set-up: key: below the threshold = too weak to quantify, mostly under pKd 3.1 to 4
# Details: plain residues with an end cap or a label only (N-terminal biotin on a linker: ttds)
row,Binder,pKd
1,B1,below the threshold
2,B2,below the threshold
3,B3,below the threshold

# Molecular target: T6, MPDZ_5, O75970
# Test: holdup assay
# Set-up: key: below the threshold = too weak to quantify, mostly under pKd 3.1 to 4
# Details: plain residues with an end cap or a label only (N-terminal biotin on a linker: ttds)
row,Binder,pKd
1,B1,below the threshold
2,B2,below the threshold
3,B3,below the threshold

# Molecular target: MAGI1_1, Q96QZ7
# Test: holdup assay
# Set-up: key: below the threshold = too weak to quantify, mostly under pKd 3.1 to 4
# Details: plain residues with an end cap or a label only (N-terminal biotin on a linker: ttds)
# Chain of MAGI1_1, Q96QZ7 (Q96QZ7 1-106): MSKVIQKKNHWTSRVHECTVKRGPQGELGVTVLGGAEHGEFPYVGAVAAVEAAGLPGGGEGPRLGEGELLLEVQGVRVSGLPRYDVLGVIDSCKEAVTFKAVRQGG
row,Binder,pKd
1,B1,below the threshold
2,B2,below the threshold
3,B3,below the threshold

# Molecular target: Inadl_6, Q8NI35
# Test: holdup assay
# Set-up: key: below the threshold = too weak to quantify, mostly under pKd 3.1 to 4
# Details: plain residues with an end cap or a label only (N-terminal biotin on a linker: ttds)
# Chain of Inadl_6, Q8NI35 (Q8NI35 1058-1167): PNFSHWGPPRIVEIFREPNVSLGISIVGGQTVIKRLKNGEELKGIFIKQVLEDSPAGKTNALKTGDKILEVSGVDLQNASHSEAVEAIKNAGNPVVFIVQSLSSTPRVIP
row,Binder,pKd
1,B1,below the threshold
2,B2,3.6
3,B3,3.7

# Molecular target: T7, MPDZ_10, O75970
# Test: holdup assay
# Set-up: key: below the threshold = too weak to quantify, mostly under pKd 3.1 to 4
# Details: plain residues with an end cap or a label only (N-terminal biotin on a linker: ttds)
row,Binder,pKd
1,B1,below the threshold
2,B2,below the threshold
3,B3,below the threshold

# Molecular target: T8, GRIP1_2, Q9Y3R0
# Test: holdup assay
# Set-up: key: below the threshold = too weak to quantify, mostly under pKd 3.1 to 4
# Details: plain residues with an end cap or a label only (N-terminal biotin on a linker: ttds)
row,Binder,pKd
1,B1,3.51
2,B2,below the threshold
3,B3,below the threshold

# Molecular target: MAGI2_2, Q86UL8
# Test: holdup assay
# Set-up: key: below the threshold = too weak to quantify, mostly under pKd 3.1 to 4
# Details: plain residues with an end cap or a label only (N-terminal biotin on a linker: ttds)
# Chain of MAGI2_2, Q86UL8 (Q86UL8 410-522): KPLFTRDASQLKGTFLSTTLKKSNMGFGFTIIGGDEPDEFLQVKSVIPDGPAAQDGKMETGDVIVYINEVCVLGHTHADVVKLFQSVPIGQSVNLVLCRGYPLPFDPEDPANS
row,Binder,pKd
1,B1,4.02
2,B2,5.87
3,B3,5.31

# Molecular target: FRMPD2_3, Q68DX3
# Test: holdup assay
# Set-up: key: below the threshold = too weak to quantify, mostly under pKd 3.1 to 4
# Details: plain residues with an end cap or a label only (N-terminal biotin on a linker: ttds)
# Chain of FRMPD2_3, Q68DX3 (Q68DX3 1073-1166): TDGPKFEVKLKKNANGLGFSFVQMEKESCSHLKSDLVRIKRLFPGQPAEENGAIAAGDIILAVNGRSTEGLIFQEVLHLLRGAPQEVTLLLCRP
row,Binder,pKd
1,B1,below the threshold
2,B2,below the threshold
3,B3,below the threshold

# Molecular target: T9, LIN7A, O14910
# Test: holdup assay
# Set-up: key: below the threshold = too weak to quantify, mostly under pKd 3.1 to 4
# Details: plain residues with an end cap or a label only (N-terminal biotin on a linker: ttds)
row,Binder,pKd
1,B1,below the threshold
2,B2,below the threshold
3,B3,below the threshold

# Molecular target: T10, PARD3B_1, Q8TEW8
# Test: holdup assay
# Set-up: key: below the threshold = too weak to quantify, mostly under pKd 3.1 to 4
# Details: plain residues with an end cap or a label only (N-terminal biotin on a linker: ttds)
row,Binder,pKd
1,B1,below the threshold
2,B2,3.52
3,B3,3.43

# Molecular target: GRIP2_6, Q9C0E4
# Test: holdup assay
# Set-up: key: below the threshold = too weak to quantify, mostly under pKd 3.1 to 4
# Details: plain residues with an end cap or a label only (N-terminal biotin on a linker: ttds)
# Chain of GRIP2_6, Q9C0E4 (Q9C0E4 648-740): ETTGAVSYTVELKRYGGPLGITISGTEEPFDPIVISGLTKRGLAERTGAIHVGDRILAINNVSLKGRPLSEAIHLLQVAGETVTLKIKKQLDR
row,Binder,pKd
1,B1,below the threshold
2,B2,below the threshold
3,B3,below the threshold

# Molecular target: GIPC2, Q8TF65
# Test: holdup assay
# Set-up: key: below the threshold = too weak to quantify, mostly under pKd 3.1 to 4
# Details: plain residues with an end cap or a label only (N-terminal biotin on a linker: ttds)
# Chain of GIPC2, Q8TF65 (Q8TF65 112-203): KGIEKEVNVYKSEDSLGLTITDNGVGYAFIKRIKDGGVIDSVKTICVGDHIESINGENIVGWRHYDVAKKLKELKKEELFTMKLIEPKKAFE
row,Binder,pKd
1,B1,3.66
2,B2,below the threshold
3,B3,below the threshold

# Molecular target: T11, GRIP1_4, Q9Y3R0
# Test: holdup assay
# Set-up: key: below the threshold = too weak to quantify, mostly under pKd 3.1 to 4
# Details: plain residues with an end cap or a label only (N-terminal biotin on a linker: ttds)
row,Binder,pKd
1,B1,below the threshold
2,B2,below the threshold
3,B3,below the threshold

# Molecular target: DLG2_2, Q15700
# Test: holdup assay
# Set-up: key: below the threshold = too weak to quantify, mostly under pKd 3.1 to 4
# Details: plain residues with an end cap or a label only (N-terminal biotin on a linker: ttds)
# Chain of DLG2_2, Q15700 (Q15700 189-283): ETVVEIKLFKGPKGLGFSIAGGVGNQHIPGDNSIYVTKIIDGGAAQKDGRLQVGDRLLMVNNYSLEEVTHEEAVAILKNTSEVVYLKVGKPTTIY
row,Binder,pKd
1,B1,4.5
2,B2,5.26
3,B3,4.57

# Molecular target: TJP2_1, Q9UDY2
# Test: holdup assay
# Set-up: key: below the threshold = too weak to quantify, mostly under pKd 3.1 to 4
# Details: plain residues with an end cap or a label only (N-terminal biotin on a linker: ttds)
# Chain of TJP2_1, Q9UDY2 (Q9UDY2 24-128): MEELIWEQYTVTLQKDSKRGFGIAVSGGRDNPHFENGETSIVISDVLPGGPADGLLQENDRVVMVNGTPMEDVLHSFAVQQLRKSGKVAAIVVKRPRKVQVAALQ
row,Binder,pKd
1,B1,below the threshold
2,B2,3.8
3,B3,4.01
